From the DeepSol protein solubility set

assay: soluble on expression in E. coli; label from the status in PepcDB or PDB records

| Sequence | soluble on expression in E. coli |
| --- | --- |
| MGRKVKPLASMKKHLTNDERDQRKDAEKALFDYPSLDLTPPDWLHDRALTEWQRVAPYLKANTPISELDRAMLASYCRAYATVQTCENDIRKNGLVQTNQKSGVRKPNPYVALQSQAMKDVKALANDLGMSLSSRARMELNKQKDETPEDTFEAMLS | not soluble |
| MGSCCSCLNRDSVPDNHPTKFKVTNVDDEGVELGSGVMELTQSELVLHLHRREAVRWPYLCLRRYGYDSNLFSFESGRRCQTGQGIFAFKCSRAEEIFNLLQDLMQCNSINVMEEPVIITRNSHPAELDLPRAPQPPNALGYTVSSFSNGCPGEGPRFSAPRRLSTSSLRHPSLGEESTHALIAPDEQSHTYVNTPASEDDHRRGRHCLQPLPEGQAPFLPQARGPDQRDPQVFLQPGQVKFVLGPTPARRHMVKCQGLCPSLHDPPHHNNNNEAPSECPAQPKCTYENVTGGLWRGAGWRLSPEEPGWNGLAHRRAALLHYENLPPLPPVWESQAQQLGGEAGDDGDSRDGLTPSSNGFPDGEEDETPLQKPTSTRAAIRSHGSFPVPLTRRRGSPRVFNFDFRRPGPEPPRQLNYIQVELKGWGGDRPKGPQNPSSPQAPMPTTHPARSSDSYAVIDLKKTVAMSNLQRALPRDDGTARKTRHNSTDLPL | soluble |
| MGSDKIHHHHHHAAEGNDKKQDLIVKTTQAVPVSHQGDKEFSFIARPFRTSELSFRVGGPIDRFDVYAGNRYQQGSIIAEIDPRDFRIRKERAEAIYHQAKAEFERIQKLYGKGNVSASTYEKAKADYITAKTTFNTASYELEDTHLIAPFNGYVGEVYIEKFQDVKATQPIISFIDIDQLKLEIYVTQDIARAVQALDTIQVRFDAQPDKVYNAKIMEISKGTTRNNLSYLLTALLPNKEGKLLAGMSGKASLNAPSVSTLSQGAAIPQTALCHRPTEGDYLWVVNSKTQQVTKRKVKKGDLLPNGYVSITEGLYPDETVANSGLRFLSDGMKISVENE | not soluble |
| MGSDKIHHHHHHAAIPISVTKGPDGIKIHCLNSANNPLLGSPAYKNVRIVELEKVPFFQRINNIRKLEMNDDYLFVQTSEKLYTYTLNGELMAEIGRKGEREDDYSELSTFYIDNKKKQITIIDGVQNKLINYNFWGNYMFTDTISEGAFKWCYQTLLINNNQLLNYHGMSMDNTEPYSLFDLTKKEVIKRYFSYQPITLGNYVYPFSWHPMTRADKDIDVIMPLCDTVYTYSAASSSFQPKYIIEMTQKMAPKNKIRKNTPSYSGDLLKLDQQGYFTGFDGIYETDTKILLQYMYGITLGYFLFDKYTKTGSFYLYSQNDKGKTFPFNVIVHSYKNEFVAFGKGKELRSLTHIKDKKVREKIESLGDNSACLIFYELE | not soluble |
| MGSDKIHHHHHHAAYGEDNHKKERHPDDRKINVGIRGGFNSSMFLVSDLKIKDVTIDEIQNNYKIGYFGALFMRLNMKRHFIQPEISYNISRCEISFDKLGSQHPDIEPDYASVSSTIHSIDFPLLYGYHVVKQGPYTMSLFAGPKLRYLWNKKNKITFENFDQQGIHEKLYPFNVSAVIGVSVNISRIFFDFRYEQGLHNLSKSVTYDNIDMEGRPEVSNITFRRRDNVLSFSLGVIF | not soluble |
| MGSDKIHHHHHHADIETCTVPGDVLNRDPIIGNDQITLPLKKGTNISKLAPEFTLTPGATINPESGVVRDFSTPQKYVVTSEDGKWKKEYEVTALFSGIPTSYHFENALPVKDKKGNILYYNFQESDAIGNILNWANANEGFNYTGVQAKPEEYPTSPAPDGVQGNCVKLTTKDTGSLGALLKMYIAAGNLFMGSFTLDIGNVLRATKFGVPFTHIPTSFKGYYKYKAGEVFTVKGEPVSGRKDICDIYAVFYETDDKVKSLDGTNVFTSPNLISIARISNAKETEQWTEFNLPFITLPGKTVDSQKLEDGKYNVAIVFSSSIKGDLFEGAAGSTLYIDEVELSYRDIK | not soluble |
| MGSDKIHHHHHHADVIVPEQPVPVVAVPAFSWAGFYLGGQVGNFSSKTALSYLGDEKTGKWTPVKKEFVPKLSGFVGGIYAGSNFDINNGFIIGIDTDVMWSGKKNTKIITWPEVPPEVSSEKKVERVSVGTNQDTSAEVTNGALSHTLKQKWFGATRVKVGFVVDRMMPYIAGGVAYTQLQNIFEKEADKTKKAIDISNVIHDEKKTMVGYTLGGGIDFAMTDNVIVRAEYRYSDYGKKKFADEKIEMRYKTNDFRVGVAYKF | not soluble |
| MGSDKIHHHHHHAGCETEGEDIDMRFETCTVSFVQQELRSSYEVYFNGEKSINRSTSVKKNSTLKLEVYKIGEKQPELSQEITLDNSKDIELLKLVGRDIAISSSLEEYTTFTPIISYFNPNTDLYTVTFNNGELSNKVKNYIAEADLSGTLKIVRNVDGQVLYEQDMTIMPEGQFSLMQLSDTDFLDISDGEEADPESRQYTKIRFFYTADAFPGHDKLKLVVYLMDLDAMQFTAPIATIDLEAGKISEYIQIDNDAFGQGVVNGVYDLIDESGNMIVNNLEHFNTSIPIGTSDNKFMTFRFMDPSHQGGDNVQCNFILSTPWK | not soluble |
| MGSDKIHHHHHHAKIRAKNADSYPFMYKNYPFLRPWVDSLNQAHALRDTFVLNPEGIRLHAYYIAAPQPTKKTAVIVHGYTDNAIRMFMIGYLYNHDLQYNVLLPDLQHQGESGGPAIQMGWKDRLDVMQWMHIANQIYGDSTQMVVHGISMGGATTMMVSGEAQPYFVKCFVEDCGYTSVWDEFSHELKSSFHLPSFPLMNTTSWLCQKKYGWNFEEASSLNQVKKSHLPMFFIHGDKDTYVPTWMVYPLYEAKSAPKQLWIVPGAAHAVSYKENKEEYTRKVKEFTDRYIH | not soluble |
| MGSDKIHHHHHHAMSSCGSTKEAASLSSLNGEWNIIEVNGSAIVPAENQELPFIGFDTATGKVYGNSGCNRMMGSIDLNSKPGTIDMSRLGSTRMACPDMTTEQNVLNALGQVKSYKKLGKHNMALCNASNRPVVVLQKKASDVKLSALNGEWKIEEVNGEAIPSGMEKQPFINFDVRKKSIHGNAGCNLINGGFETDKENPRSISFPNVISTMMACPDMEVEGKVMKAINEVKSFDVLSGGGIGFYSADGTLVMVLVKK | not soluble |
| MGSDKIHHHHHHANAAKKDDAKFKPAADRDGPRWRTGIEGQRIADLGDGRFLNPVLSGDYPDPSVLKDGDDYYMTHSSFDSAPGLLIWHSRDLVNWRPLGPALAKPLGTVFAVDIAKHDGRYFIYIPFMKAPWSTDLPSFANTFVIHAPSMEGPWSDPIDLKVGGLIDPGHVVGEDGHRYLFFNDGKRVRLTADGLATDGPVETAYQAWRYPDDWITEAYSPEGPKLFRRGDYFYLVNAVGGTSGPATGHMIVAARSRSIHGPWENCPHNPIQRTHSRQEMWWSRGHATCVEGPGGQWYMVYHGYENGYHTLGRQTLVEPIEWTPDGWFRATGGDLSEPLRKPRGPAQPHGMAHSDSFHTDRLGTLWNLYGSAPAETARIAIGDGALTLKAKGKGPSDGVVLTQQVGDRSYEVSVELELTDKTSGGLLLFFDDRLFLGMGIDGHRMTTWRGGKASYWPEPAPPARRIFMRITNQEQVVTFYYSLDGKNWTRHGVRSEVTGYNANTVDNLLSLRPALYAAGEGEVLFRNFTYRALA | not soluble |
| MGSDKIHHHHHHAQDDANCNSNSSISHEAVKAGNFKDAYTPWKAVLENCPTLRFYTFTDGYKILKGLLGQIKDRNSAEYKKYFDELMNTHDLRMKYTQEFLGKGVKVSSEDEALGIKAVDYIAFAPKVDVNQAYDWLKKSVDAAKAESAAATLFYFLQMSHDKLKEDPAHKEQFIQDYLAASEYADDAIAAADKESVKKAFGGIKDNLVALFINSGTADCESLQGIYGPKVETNQTDLNYLKKVISIMKMMKCTDSDAYQQASFYVYKIEPSAEAATGCAYQAYKKGDIDGSVKFFDEAINLETDNAKKAEKAYAAASVLTTAKKLSQARSYAQKAISFNENYGAPYILIANLYAMSPNWSDESALNKCTYFAVIDKLQKAKSVDPSVTEEVNKMISRYSAYTPQAKDLFMLGYKAGDRITIGGWIGESTTIR | not soluble |
| MGSDKIHHHHHHAQDKPQEEGFVFTTVKENPITSIKNQNRSSTCWSFSSLGFLESELLRTGKGEYDLSEMFVVHHTMVDRAVNYVRYHGDSSFSPGGSFYDIMFCMKNYGLVPQDAMPGIMYGDSLPVHNELDATAGAYVNAIAKGNLKKLTPVWKKGLCAIYDTYLGQCPEKFTYKGKEYTPMTFAQSLGLNPDDYVSLTSYTHHPFYSQFAIEIQDNWRNGLSYNLPLDEFMAVMDNAVKNGYTFAWGSDVSEEGFTRDGIAVVPDAAKGAELTGSDMARWTGMTAADKRKELTSKPLPEMKITQEMRQTAFDNWETTDDHGMIIYGIAKDQNGKEYFMVKNSWGTNNKYKGTWYASKAFVAYKTMNILVHKDALPKDIAKKLGIK | not soluble |
| MGSDKIHHHHHHAQDNPFKPEWFVSGGINGVTALNGSANNILGGKVSGGVWLNKIIGLRVDAEAGNVWLKGGYNAVTVGAGADILVNLMKNYTDEDRKFRLNAIFGLGYNYYSFGDDYPRLSKTNTMSGNFSLQAAFRLNSHLSIFAEPGIKISTKFYDIENKDDVFAGGMMTVGVIYKF | not soluble |
| MGSDKIHHHHHHAQQRTEYNRKGDEAMKRLDYSDAKMWYEEGVSQCDAYSIDQLTTIWLSNERMRPSMRSLMNKCLNCLTVKATEDDPDAISKLIIYYSEGIGTPKSEELATYWKEYQEILLKPAEPAAQPIDSAAVSPKKRMEFFAGYSYSIESPYGITVGGMGQRFGWYVRFKTNMSFMNYTDECNNQGQIIKFSNSEGESYELNTGKSSKTNSIAGTAGLIVKCFPWLYASVGLGYGERALLHSFTTHSYENYDSTREVWCRNIDSSYKGVAAEVDLMMKITNSVFISVGCNTVNFKYLDLNAGLGVFF | not soluble |
| MGSDKIHHHHHHAQTPQDSVRFIGYLPVRHTDPTKWITRYQSEIDRYQTENQMLKDTSCDVLFLGSSSINLWDNIYRDMAPLKILRRSYGGAALRDMLYNYDVIARGYHPRSIVIYVENDLAGTPEDLTVGETFDFFRLLTNRLQRDYPDIPIFILSYKPSLARKEMIPKHEIINALLQEYASKRGGLTYIDVASCLYDNNGKLRKDIFKQDGLHMNQNGYDLWTAILKPKILESIR | not soluble |
| MGSDKIHHHHHHARLNAFKQLTPGSDVRDWIAAAGQVGGLGAADLNFPDHFAVYDADQMGNFLGEAALTLNGIAMRYYTDPGFKLGAFTHPDAAVRQAALDVTKQGIDTCARMGGKTVTLWMGQDGFDYAFQMDYGLAWDRTVAAIADICAHDPNIDIAIEYKPNEPRAFALMPDIGTTLLACREVGAVNLGVTLDFAHVLYADEMPAHSAALIGRHSRMIGLHLNDGYGKRDDGLMVGSVHAIQTVELLVAMLRMGQTDVIYFDTFPDMGGLNPIEEARTNVAVTDRLMAVAESLMEDPALAQAIDRQDAAASHRIVARALYGS | not soluble |
| MGSDKIHHHHHHASCNKFDDLNTNPDAATKVTAPMLATKLILNITQQGSAKNFVYHSMLSKQIAWSENASDEQYNLFGRTDFDGYTILTNCQKMVDAANEGDKDSYAALAKFMKAYKLFYKSLEVGDIPYSDALKGEEGVQKPKYDTQKEVMRQVLEDLEEAYTLFSSGSDFDGDPIFGGDTENWKKTVVAFELKVLTHLCKKDTDADLKVKERFARLVSSGSLMTSNADNFQLVYSNKAGQLYPFYYTQNKHSDYLMMSSVIIDNLKKFNDYRMFYYASPAKAQTDKGIKDSEWDAYLSIDPSDSYSNISVLYGKGEFCLANLRYTRVPEGEPLMRLSYAEQNFILAEGAVRGWISEDASTYYKKGIEASMNFIADNTPDKEEYTHGRTITQEYIQEYLAQPVIQLSGDKEKDLEMILLQRYLASFLQHPYDAYYDYRRTGYPVLPINPSTNLNTEKNKIPTRWMYPEAEFSYNPDNANEAVQRQYNGSDDVNKLMWILQ | not soluble |
| MGSDKIHHHHHHASEPVSVASTPETDEIDQLFDDMQLDGIVSYTAFRQAVTGYQKIEQKSKSIMTLIDFSKPSTEKRLYVLDMKNKKLLYTSVVSHGKNSGGNYATSFSNKNGSYKSSLGFYLTENTYQGRNGYSLVLNGLEKGINDQAKQRAIVMHGAAYANPNITASAGRLGRSLGCPALPQALAKPIIDTIKKGSVLFIYANNKDYLANSTFLSPRQTEYLSWAQPAN | not soluble |
